Patent publication US20220332769A1

Experiments:
Experiment in all cases: cell-based or functional assay
[1] = molecular target: SARS CoV-1 spike on pseudotyped lentivirus (CoV-1 PVP) (SARS CoV-1) (UniProt P59594)
[2] = molecular target: Spike protein of live SARS CoV-2 virus (original USA-WA1/2020 strain) (SARS CoV-2) (UniProt P0DTC2)
[3] = molecular target: MERS spike on pseudotyped lentivirus (MERS-PVP) (MERS coronavirus) (UniProt K9N5Q8)

ACE2-VGTM MVP (decoy multivalent particle displaying ACE2 fused with VSVG transmembrane domain)
IC50, CoV-1 pseudovirus microneutralization assay, 293T/ACE2 target cells [1]: 0.13 pM | IC50, CoV-1 pseudovirus neutralization assay, VERO-E6 target cells [1]: 0.44 pM | IC50, live CoV-2 virus microneutralization assay [2]: 57 pM | IC50, live virus PRNT assay, USA-WA1/2020 strain [2]: 0.98 pM | reduction of viral titer, live CoV-2 virus microneutralization assay [2]: > 6 logs

Recombinant DPP4 protein (from UniProt P27487 39-766) (receptor)
IC50, MERS pseudovirus microneutralization assay, H1650 target cells [3]: > 48000 pM

HCΔ-DPP4 MVP (decoy multivalent particle displaying DPP4 extracellular domain fused to measles HCΔ18)
IC50, MERS pseudovirus microneutralization assay, H1650 target cells [3]: 2.96 pM

NA75-DPP4 MVP (DPP4 extracellular domain fused to influenza neuraminidase N-terminus and transmembrane regions) (from UniProt P27487 30-766)
IC50, MERS pseudovirus neutralization assay, H1650 target cells [3]: 0.87 pM
